Assays:
[1] = target: PTg (genetically detoxified pertussis toxin) (Bordetella pertussis, UniProt P04978+P04979); type: binding
[2] = target: pertussis toxin S2 subunit, as it stands in PTg (Bordetella pertussis, UniProt P04978); test: cryo-EM structure
[3] = target: pertussis toxin S3 subunit, as it stands in PTg (Bordetella pertussis, UniProt P04979); test: cryo-EM structure
[4] = target: pertussis toxin (PT), enzymatically active holotoxin (Bordetella pertussis, strain of bought …, UniProt P04977;P04978;P04979;P0A3R5;P04981); test: ELISA
[5] = target: pertussis toxin S5 subunit, as it stands in PTg (Bordetella pertussis, UniProt P04981); test: cryo-EM structure

`CC(=O)N[C@H]1[C@H]([C@H](O)[C@H](O)CO)O[C@@](O[C@H]2[C@@H](O)[C@@H](CO)O[C@@H](O[C@H]3[C@H](O[C@@H]4O[C@@H](C)[C@@H](O)[C@@H](O)[C@@H]4O)[C@@H](NC(C)=O)C(O)O[C@@H]3CO)[C@@H]2O)(C(=O)O)C[C@@H]1O` (stereo partly drawn) [sialyl Lewis^X blood group antigen, Neu5Acα2-3Galβ1-4(Fucα1-3)GlcNAc] was tested, and the RFU [1] was “PTg alone binds to sialylated N-glycans, asialo-N-glycans, and other carbohydrates (such as the sialyl Lewis^X”.

B1: hu11E6 Fab (Fab, V domains shown)
VH: EVQVVESGGGLVQPGRSLRLSCTTSGFTFTDYYVSWVRQAPGKALEWLGFIRNKVNGYTTEFSSSVKGRFTISRDNSKSILYLQMNSLKIEDTAVYYCARVSYYGRGWYFDYWGQGTTLTVSS
VL: DIVMTQSPSSLSASVGDRVTISCRASQDIDNYLSWFQQKPGGTVKLLIYYTSRLHSGVPSRFSGSGSGTDYTLTISSLQPEDIATYFCQQGNTFPWTFGGGTKLEIK
B1: binds [2]; binds [3].

B2: hu1B7mut IgG (hu1B7 HC S56A, Q61A, Q64A) (antibody, V domains shown)
VH: QVQLVQSGAEVKKPGASVKVSCKASGYKFTSYWMHWVRQAPGQGLEWIGNIFPGSGATNYAAKFAGRVTLTVDTSTSTAYMELSSLRSEDTAVYYCTRWLSGAYFDYWGQGTTVTVSS
VL: QIVLTQSPATLSVSPGERVTLTCSASSSVSFMYWYQQKPGRAPKPLIYLTSNLPSGVPARFSGSGSGTSYTLTINSLEAEDAATYYCQQWSSHPPTFGSGTKLEIK
B2: binds [4].

B3: hu1B7 Fab (Fab, V domains shown)
VH: QVQLVQSGAEVKKPGASVKVSCKASGYKFTSYWMHWVRQAPGQGLEWIGNIFPGSGSTNYAQKFQGRVTLTVDTSTSTAYMELSSLRSEDTAVYYCTRWLSGAYFDYWGQGTTVTVSS
VL: QIVLTQSPATLSVSPGERVTLTCSASSSVSFMYWYQQKPGRAPKPLIYLTSNLPSGVPARFSGSGSGTSYTLTINSLEAEDAATYYCQQWSSHPPTFGSGTKLEIK
B3: binds [5].

B4: hu1B7 IgG (antibody, V domains shown)
VH: QVQLVQSGAEVKKPGASVKVSCKASGYKFTSYWMHWVRQAPGQGLEWIGNIFPGSGSTNYAQKFQGRVTLTVDTSTSTAYMELSSLRSEDTAVYYCTRWLSGAYFDYWGQGTTVTVSS
VL: QIVLTQSPATLSVSPGERVTLTCSASSSVSFMYWYQQKPGRAPKPLIYLTSNLPSGVPARFSGSGSGTSYTLTINSLEAEDAATYYCQQWSSHPPTFGSGTKLEIK
B4: binds [4].

From publication PMC12002313 (Proceedings of the National Academy of Sciences of the …, 2025)
